Key:
Fur (Bacillus subtilis) [1] = biological target: T1, Fur (Bacillus subtilis) (UniProt P54574); test: EMSA; settings: EMSA with 1 mM MnCl2; ~1 fmol 32P-labelled probe (B, C) or ~180 ng DNA with ethidium bromide stain, 5% native PAGE (A); remaining buffer, pH and temperature …
T1 sequence: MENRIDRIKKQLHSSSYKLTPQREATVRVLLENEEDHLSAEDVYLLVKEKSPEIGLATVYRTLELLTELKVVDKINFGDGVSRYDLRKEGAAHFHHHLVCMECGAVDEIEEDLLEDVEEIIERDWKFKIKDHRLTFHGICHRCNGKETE

Fur (Bacillus subtilis) [2] = test: EMSA; settings: EMSA with 1 mM MnCl2; ~1 fmol 32P-labelled probe (B, C) or ~180 ng DNA with ethidium bromide stain, 5% native PAGE (A); remaining buffer, pH and temperature …

## TAGACCTTTGTCCTGCACAGAGGTCTTTTTTTGTTACAGTTTTATAGTACTTTTATTTCATTTTCGTAAAATGTAACAAAATTACTTGACGTAAACAAGTTATGTATATATACTAGCTTACATTAAGTAAGTGATAACATTTATCAAGGAGGATAAAATGAATAAATCATTTGAAATTGGCACATTACTTTTAAGAG (double strand) [catD promoter probe (-121 to +76)]
Fur (Bacillus subtilis) [1]
  Kd: 700 nM

## catD ORF 218-bp HindIII fragment (+169 to +386)
Fur (Bacillus subtilis) [2]
  binding: > 3 µM

## catD ORF probe (+137 to +278)
Fur (Bacillus subtilis) [2]
  binding: > 2 µM

## catD promoter 323-bp HindIII fragment (-155 to +168)
Fur (Bacillus subtilis) [2]
  K half: 500 nM

## catD promoter probe (-121 to +76)
Fur (Bacillus subtilis) [2]
  Kd: 700 nM

— PMC6212828
